{
  "source": "patent US12252531B2",
  "about": "“Methods of screening for high-affinity, isoform-selective TGFβ1 inhibitors” (Scholar Rock, Inc., priority 2018, dated 2025)",
  "molecules": {"B1": {"name": "Ab6-mIgG1: chimeric antibody with the human V domains of Ab6 fused to mouse IgG1/kappa constant domains (protein)", "heavy chain": "EVQLVESGGGLVQPGGSLRLSCTASGFTFSSFSMDWVRQAPGKGLEWVSYISPSADTIYYADSVKGRFTISRDNAKNTLYLQMNSLRAEDTAVYYCARGVLDYGDMLMPWGQGTLVTVSS", "light chain": "DIQMTQSPSSLSASVGDRVTITCQASQDITNYLNWYQQKPGKAPKLLIYDASNLETGVPSRFSGSGSGTDFTFTISSLQPEDIATYYCQQADNHPPWTFGGGTKVEIK"}, "B2": {"name": "Ab32: proTGFβ1 antibody; VH SEQ ID NO: 140, VL SEQ ID NO: 15 (antibody, V domains shown)", "VH": "EVQLVESGGGLVQPGGSLRLSCAASGFTFSSFSMNWVRQAPGKGLEWVSYISPSADTIYYADSVKGRFTISRDNAKNTLYLQMNSLRAEDTAVYYCARGVWDMGDMLDPWGQGTLVTVSS", "VL": "DIQMTQSPSSLSASVGDRVTITCQASQDITNYLNWYQQKPGKAPKLLIYDASNLETGVPSRFSGSGSGTDFTFTISSLQPEDIATYYCQQADNHPPWTFGGGTKVEIK"}, "B3": {"name": "Ab33: proTGFβ1 antibody; VH SEQ ID NO: 141, VL SEQ ID NO: 15 (antibody, V domains shown)", "VH": "EVQLVESGGGLVQPGGSLRLSCAASGFTFSSFSMNWVRQAPGKGLEWVSYISPSADTIYYADSVKGRFTISRDNAKNTLYLQMNSLRAEDTAVYYCAHGVLDYGDMLDPWGQGTLVTVSS", "VL": "DIQMTQSPSSLSASVGDRVTITCQASQDITNYLNWYQQKPGKAPKLLIYDASNLETGVPSRFSGSGSGTDFTFTISSLQPEDIATYYCQQADNHPPWTFGGGTKVEIK"}},
  "key": {"[1]": {"assay": "Safety/toxicology study in rats", "conditions": "rat, in vivo", "description": "Animals were sacrificed on Day 29 and necropsies performed.\nBoth halves were submitted for embedding."}, "[2]": {"test_system": "TGFβ downstream tonic signaling", "conditions": "non-diseased rat BAL; cited from earlier work"}, "[3]": {"conditions": "in vivo, cited from earlier work"}, "[4]": {"test_system": "intratumoral immune cells in MBT2 tumors", "assay": "MBT2 tumor immune contexture (flow cytometry, IHC, qPCR)", "assay_type": "in vivo, mouse", "conditions": "MBT2 tumors (FIG. 30F)", "experimental": "Each study group contained 12 mice with MBT2 tumors as described herein. Ab6-treatment group received the antibody weekly, on day 1 and day 8, at 10 mg/kg. Anti-PD1 treatment group was treated biweekly at 10 mg/kg per injection, on days 1, 4, 8 and 11, total of 20 mg/kg per week. […] On day 13, tumors were collected from the mice as shown above.\nFlow cytometric analysis: Tumor-associated immune cell subsets were also analyzed by tumor flow cytometry in MBT-2 tumors. Briefly, tumors were excised and weighed prior to dissociation using the Tumor Dissociation Kit for gentleMACS (Miltenyi). Samples were filtered through a 70 μm cell strainer to remove any aggregates. […] Flow cytometry was performed on a Attune NxT (ThermoFisher) and analyzed with FlowJo (BD Bioscience).\nFor immunohistochemical analysis, tumors from six animals were cut in halves and fixed. […] FIG. 30E provides the quantitation of the IHC data, shown as % of CD8-positive cells of total nuclei. […]"}, "[5]": {"molecular_target": "Matrix-associated proTGFb1 (hLTBP1, hLTBP3)", "assay": "BLI (OCTET), average over matrix-associated complexes", "assay_type": "binding, human", "conditions": "average KD of (B) and (C), read-out: (D) ECM AVRG", "description": "(§1) Column (A) of the table lists monoclonal antibodies with discrete amino acid sequences. […] Columns (B), (D), (E) and (F) provide affinities of each of the listed antibodies, measured in KD. […] Average KD values of (B) and (C) are shown in the corresponding column (D), which collectively represents affinities of the antibodies to ECM- or matrix-associated proTGFβ1 complexes. Similarly, Average KD values of (E) and (F) are shown in the corresponding column (G), which collectively represents affinities of the antibodies to cell-surface or cell-associated proTGFβ1 complexes. Finally, relative ratios between the average KD values from columns (D) and (G) are expressed as “fold bias” in column (H). Thus, the greater the number of column (H) is, the greater bias exists for the particular antibody, when comparing binding preferences of the antibody for matrix-associated complexes and cell-surface complexes. This is one way of quantitatively representing and comparing inherent bias of antibodies to their target complexes. Such analyses may be useful in guiding the selection process for a candidate antibody for particular therapeutic use.\n(§2) The concept of “uniformity” or lack of bias is further illustrated in Table 8. Average KD values between the two matrix-associated and cell-associated complexes are calculated, respectively (see columns (D) and (G)). These average KD values can then be used to ask whether bias in binding activities exists between complexes associated with matrix vs. complexes associated with cell surface (e.g., immune cells). Bias may be expressed as “fold-difference”in the average KD values, as illustrated in Table 8."}, "[6]": {"test_system": "Cell-associated proTGFb1 (hGARP, hLRRC33)", "assay": "BLI (OCTET), average over cell-associated complexes", "assay_type": "binding, human", "conditions": "average KD of (E) and (F), read-out: (G) Cell AVRG", "description": "as §1, §2"}, "[7]": {"test_system": "LTBP1-proTGFβ1, LTBP3-proTGFβ1, GARP-proTGFβ1 and LRRC33-proTGFβ1 complexes", "assay": "BLI (OCTET), binding profile and bias across the four complexes", "parameters": "species or system human", "conditions": "ratio of average KD cell-associated / matrix-associated", "description": "as §1, §2"}, "[8]": {"molecular_target": "Matrix-associated proTGFβ1 (hLTBP1, hLTBP3)", "assay": "MSD-SET, average over matrix-associated complexes", "assay_type": "binding, human", "conditions": "average of (B) and (C), read-out: (D) ECM AVRG", "description": "as §1\n(§3) Solution equilibrium titration (“SET”) is an assay whereby binding between two molecules (such as an antigen and an antibody that binds the antigen) can be measured at equilibrium in a solution. For example, Meso-Scale Discovery (“MSD”)-based SET, or MSD-SET, is a useful mode of determining dissociation constants for particularly high-affinity protein-protein interactions at equilibrium (see, for example: Ducata et al. (2015) J Biomolecular Screening 20(10): 1256-1267). The SET-based assays are particularly useful for determining KD values of antibodies with sub-nanomolar (e.g., picomolar) affinities."}, "[9]": {"test_system": "Cell-associated proTGFβ1 (hGARP, hLRRC33)", "assay": "MSD-SET, average over cell-associated complexes", "assay_type": "binding, human", "conditions": "average of (E) and (F), read-out: (G) Cell AVRG", "description": "as §1, §3"}, "[10]": {"test_system": "hLTBP1-proTGFβ1, hLTBP3-proTGFβ1, hGARP-proTGFβ1 and hLRRC33-proTGFβ1", "assay": "MSD-SET, binding profile and bias across the four human LLCs", "conditions": "ratio of average KD cell-associated / matrix-associated", "description": "Solution Equilibrium Titration (SET): The SET is an assay whereby binding between two molecules (such as an antigen and an antibody that binds the antigen) can be measured at equilibrium in a solution. For example, Meso-Scale Discovery (“MSD”)-based SET, or MSD-SET, is a useful mode of determining dissociation constants for particularly high-affinity protein-protein interactions at equilibrium, such as picomolar-affinity antibodies binding to their antigens (see, for example: Ducata et al. (2015) J Biomolecular Screening 20(10): 1256-1267). The SET-based assays are particularly useful for determining KD values of antibodies with sub-nanomolar (e.g., picomolar) affinities.\nas §3\nFor solution equilibrium titration-based binding assays, protein complexes that comprise one of the presenting molecules such as those shown above may be employed as antigen (presenting molecule-TGFβ1 complex, or an LLC). Test antibodies are allowed to form antigen-antibody complex in solution. Antigen-antibody reaction mixtures are incubated to allow an equilibrium to be reached; the amount of the antigen-antibody complex present in the assay reactions can be measured by suitable means well known in the art. As compared to BLI-based assays, SET-based assays are less affected by on/off rates of the antigen-antibody complex, allowing sensitive detection of very high affinity interactions."}},
  "data": [
    {"molecule": "c1ccc(-c2nn3c(c2-c2ccnc4cc(OCCN5CCOCC5)ccc24)CCC3)nc1", "note": "[LY2109761]", "values": [
      {"measurement": "bone findings", "setting": "[1]", "result": "macroscopic abnormally shaped sternum and microscopic increased thickness of the hypertrophic zone in the endplate of the sternum and physis of the femur and tibia"},
      {"measurement": "incidence/severity of bone findings compared with pan-TGFβ antibody", "setting": "[1]; po", "result": "higher incidence and/or severity"},
      {"measurement": "inhibition of TGFβ downstream tonic signaling", "setting": "[2]", "result": "shown to inhibit TGFβ downstream tonic signaling"}
    ]},
    {"molecule": "GC1008: human analog of 1D11, pan-TGFβ antibody", "values": [
      {"measurement": "Exposure: DN Cmax", "setting": "[3]; human", "result": "DN Cmax~(350 ng/mL)mg"},
      {"measurement": "previously reported adverse events (CTCAE grade)", "setting": "[3]", "result": "leukocytosis (grade 3), fatigue (grade 3), hypoxia (grade 3), asystole (grade 5), leukopenia (grade 1), recurrent, transient, tender erythematous, nodular skin lesions, suppurative dermatitis, and herpes zoster"}
    ]},
    {"molecule": "B1", "values": [
      {"measurement": "phospho-SMAD3 staining near tumor vascular endothelium (IHC)", "setting": "[4]", "result": "much diminished"}
    ]},
    {"molecule": "B2", "values": [
      {"measurement": "Kd", "setting": "[5]", "result": 0.242, "unit": "nM"},
      {"measurement": "Kd", "setting": "[6]", "result": 0.597, "unit": "nM"},
      {"measurement": "(H) G/D (fold bias)", "setting": "[7]", "result": 2.467, "unit": "fold"},
      {"measurement": "Kd", "setting": "[8]", "result": 0.032, "unit": "nM"},
      {"measurement": "Kd", "setting": "[9]", "result": 0.051, "unit": "nM"},
      {"measurement": "(H) G/D (fold bias)", "setting": "[10]", "result": 1.60, "unit": "fold"}
    ]},
    {"molecule": "B3", "values": [
      {"measurement": "Kd", "setting": "[5]", "result": 0.145, "unit": "nM"},
      {"measurement": "Kd", "setting": "[6]", "result": 0.302, "unit": "nM"},
      {"measurement": "(H) G/D (fold bias)", "setting": "[7]", "result": 2.083, "unit": "fold"},
      {"measurement": "Kd", "setting": "[8]", "result": 0.009, "unit": "nM"},
      {"measurement": "Kd", "setting": "[9]", "result": 0.027, "unit": "nM"},
      {"measurement": "(H) G/D (fold bias)", "setting": "[10]", "result": 3.00, "unit": "fold"}
    ]}
  ]
}
